Test results published in patent CN115141281A (dated 2022).

Molecular target: T1, 人环氧合酶-2(COX-2) (human, UniProt P35354 18-604, limits assumed)
T1 construct: also called 人COX-2; 重组人COX2
T1 sequence (looked up): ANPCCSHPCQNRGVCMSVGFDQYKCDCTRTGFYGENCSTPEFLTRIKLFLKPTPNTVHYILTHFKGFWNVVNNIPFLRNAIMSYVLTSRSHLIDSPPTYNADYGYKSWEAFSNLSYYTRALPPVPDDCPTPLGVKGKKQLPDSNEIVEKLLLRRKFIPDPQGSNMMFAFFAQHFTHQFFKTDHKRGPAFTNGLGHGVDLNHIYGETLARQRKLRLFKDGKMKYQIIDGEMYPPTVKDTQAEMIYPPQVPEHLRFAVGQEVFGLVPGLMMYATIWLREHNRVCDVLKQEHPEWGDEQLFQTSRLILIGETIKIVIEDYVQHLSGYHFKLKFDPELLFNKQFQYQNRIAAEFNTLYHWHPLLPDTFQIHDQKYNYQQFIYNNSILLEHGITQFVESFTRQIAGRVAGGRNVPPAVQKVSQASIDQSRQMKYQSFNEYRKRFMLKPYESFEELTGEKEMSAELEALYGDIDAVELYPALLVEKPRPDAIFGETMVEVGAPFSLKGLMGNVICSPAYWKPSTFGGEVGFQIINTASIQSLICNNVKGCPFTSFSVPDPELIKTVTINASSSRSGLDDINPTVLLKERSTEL
Experiment: BLI, antibody (25 nM) loaded on AHC sensor, two-fold dilutions of human COX-2 in solution

B1: COX-2-HM4E6单克隆抗体 (antibody, V domains shown)
VH: EVQLEESATELARPGASVKLSCKASGYIFSVLMILWIKQRPGQGLEWIGLCKMLIPNFNMRHALFGKATLTADKSSSTAYMQLSSLASEDSAVYYCAGFIDNIWYWGLGTTLAVSS
VL: DIVITQRPALMAASPGEKVTITCQDSGNVYRNEKPWYQQKSGISPKPWIYYATHFTKGVPARFSGSGSGTSYSLTITSMEAEDAATYYCTFGCKHFDHFGAGTKLELK
Kd: 0.696 nM
